Data on 6 substances can be found in IntAct's records for PubMed 20969867.

In test [1] the target is kmt2a_human KMT2A (UniProt Q03164).
The target is the same in test [2]. The source holds these as a separate data set.
Test [3] shares this target. This is another data set of the same source.
Test [4] shares this target. The source holds these as a separate data set.
For test [5] the target is unchanged. This is another data set of the same source.
Test [6] shares this target. The source holds these as a separate data set.
Test [7] has the same target. The source holds these as a separate data set.

Sequence of kmt2a_human KMT2A (Q03164 whole entry): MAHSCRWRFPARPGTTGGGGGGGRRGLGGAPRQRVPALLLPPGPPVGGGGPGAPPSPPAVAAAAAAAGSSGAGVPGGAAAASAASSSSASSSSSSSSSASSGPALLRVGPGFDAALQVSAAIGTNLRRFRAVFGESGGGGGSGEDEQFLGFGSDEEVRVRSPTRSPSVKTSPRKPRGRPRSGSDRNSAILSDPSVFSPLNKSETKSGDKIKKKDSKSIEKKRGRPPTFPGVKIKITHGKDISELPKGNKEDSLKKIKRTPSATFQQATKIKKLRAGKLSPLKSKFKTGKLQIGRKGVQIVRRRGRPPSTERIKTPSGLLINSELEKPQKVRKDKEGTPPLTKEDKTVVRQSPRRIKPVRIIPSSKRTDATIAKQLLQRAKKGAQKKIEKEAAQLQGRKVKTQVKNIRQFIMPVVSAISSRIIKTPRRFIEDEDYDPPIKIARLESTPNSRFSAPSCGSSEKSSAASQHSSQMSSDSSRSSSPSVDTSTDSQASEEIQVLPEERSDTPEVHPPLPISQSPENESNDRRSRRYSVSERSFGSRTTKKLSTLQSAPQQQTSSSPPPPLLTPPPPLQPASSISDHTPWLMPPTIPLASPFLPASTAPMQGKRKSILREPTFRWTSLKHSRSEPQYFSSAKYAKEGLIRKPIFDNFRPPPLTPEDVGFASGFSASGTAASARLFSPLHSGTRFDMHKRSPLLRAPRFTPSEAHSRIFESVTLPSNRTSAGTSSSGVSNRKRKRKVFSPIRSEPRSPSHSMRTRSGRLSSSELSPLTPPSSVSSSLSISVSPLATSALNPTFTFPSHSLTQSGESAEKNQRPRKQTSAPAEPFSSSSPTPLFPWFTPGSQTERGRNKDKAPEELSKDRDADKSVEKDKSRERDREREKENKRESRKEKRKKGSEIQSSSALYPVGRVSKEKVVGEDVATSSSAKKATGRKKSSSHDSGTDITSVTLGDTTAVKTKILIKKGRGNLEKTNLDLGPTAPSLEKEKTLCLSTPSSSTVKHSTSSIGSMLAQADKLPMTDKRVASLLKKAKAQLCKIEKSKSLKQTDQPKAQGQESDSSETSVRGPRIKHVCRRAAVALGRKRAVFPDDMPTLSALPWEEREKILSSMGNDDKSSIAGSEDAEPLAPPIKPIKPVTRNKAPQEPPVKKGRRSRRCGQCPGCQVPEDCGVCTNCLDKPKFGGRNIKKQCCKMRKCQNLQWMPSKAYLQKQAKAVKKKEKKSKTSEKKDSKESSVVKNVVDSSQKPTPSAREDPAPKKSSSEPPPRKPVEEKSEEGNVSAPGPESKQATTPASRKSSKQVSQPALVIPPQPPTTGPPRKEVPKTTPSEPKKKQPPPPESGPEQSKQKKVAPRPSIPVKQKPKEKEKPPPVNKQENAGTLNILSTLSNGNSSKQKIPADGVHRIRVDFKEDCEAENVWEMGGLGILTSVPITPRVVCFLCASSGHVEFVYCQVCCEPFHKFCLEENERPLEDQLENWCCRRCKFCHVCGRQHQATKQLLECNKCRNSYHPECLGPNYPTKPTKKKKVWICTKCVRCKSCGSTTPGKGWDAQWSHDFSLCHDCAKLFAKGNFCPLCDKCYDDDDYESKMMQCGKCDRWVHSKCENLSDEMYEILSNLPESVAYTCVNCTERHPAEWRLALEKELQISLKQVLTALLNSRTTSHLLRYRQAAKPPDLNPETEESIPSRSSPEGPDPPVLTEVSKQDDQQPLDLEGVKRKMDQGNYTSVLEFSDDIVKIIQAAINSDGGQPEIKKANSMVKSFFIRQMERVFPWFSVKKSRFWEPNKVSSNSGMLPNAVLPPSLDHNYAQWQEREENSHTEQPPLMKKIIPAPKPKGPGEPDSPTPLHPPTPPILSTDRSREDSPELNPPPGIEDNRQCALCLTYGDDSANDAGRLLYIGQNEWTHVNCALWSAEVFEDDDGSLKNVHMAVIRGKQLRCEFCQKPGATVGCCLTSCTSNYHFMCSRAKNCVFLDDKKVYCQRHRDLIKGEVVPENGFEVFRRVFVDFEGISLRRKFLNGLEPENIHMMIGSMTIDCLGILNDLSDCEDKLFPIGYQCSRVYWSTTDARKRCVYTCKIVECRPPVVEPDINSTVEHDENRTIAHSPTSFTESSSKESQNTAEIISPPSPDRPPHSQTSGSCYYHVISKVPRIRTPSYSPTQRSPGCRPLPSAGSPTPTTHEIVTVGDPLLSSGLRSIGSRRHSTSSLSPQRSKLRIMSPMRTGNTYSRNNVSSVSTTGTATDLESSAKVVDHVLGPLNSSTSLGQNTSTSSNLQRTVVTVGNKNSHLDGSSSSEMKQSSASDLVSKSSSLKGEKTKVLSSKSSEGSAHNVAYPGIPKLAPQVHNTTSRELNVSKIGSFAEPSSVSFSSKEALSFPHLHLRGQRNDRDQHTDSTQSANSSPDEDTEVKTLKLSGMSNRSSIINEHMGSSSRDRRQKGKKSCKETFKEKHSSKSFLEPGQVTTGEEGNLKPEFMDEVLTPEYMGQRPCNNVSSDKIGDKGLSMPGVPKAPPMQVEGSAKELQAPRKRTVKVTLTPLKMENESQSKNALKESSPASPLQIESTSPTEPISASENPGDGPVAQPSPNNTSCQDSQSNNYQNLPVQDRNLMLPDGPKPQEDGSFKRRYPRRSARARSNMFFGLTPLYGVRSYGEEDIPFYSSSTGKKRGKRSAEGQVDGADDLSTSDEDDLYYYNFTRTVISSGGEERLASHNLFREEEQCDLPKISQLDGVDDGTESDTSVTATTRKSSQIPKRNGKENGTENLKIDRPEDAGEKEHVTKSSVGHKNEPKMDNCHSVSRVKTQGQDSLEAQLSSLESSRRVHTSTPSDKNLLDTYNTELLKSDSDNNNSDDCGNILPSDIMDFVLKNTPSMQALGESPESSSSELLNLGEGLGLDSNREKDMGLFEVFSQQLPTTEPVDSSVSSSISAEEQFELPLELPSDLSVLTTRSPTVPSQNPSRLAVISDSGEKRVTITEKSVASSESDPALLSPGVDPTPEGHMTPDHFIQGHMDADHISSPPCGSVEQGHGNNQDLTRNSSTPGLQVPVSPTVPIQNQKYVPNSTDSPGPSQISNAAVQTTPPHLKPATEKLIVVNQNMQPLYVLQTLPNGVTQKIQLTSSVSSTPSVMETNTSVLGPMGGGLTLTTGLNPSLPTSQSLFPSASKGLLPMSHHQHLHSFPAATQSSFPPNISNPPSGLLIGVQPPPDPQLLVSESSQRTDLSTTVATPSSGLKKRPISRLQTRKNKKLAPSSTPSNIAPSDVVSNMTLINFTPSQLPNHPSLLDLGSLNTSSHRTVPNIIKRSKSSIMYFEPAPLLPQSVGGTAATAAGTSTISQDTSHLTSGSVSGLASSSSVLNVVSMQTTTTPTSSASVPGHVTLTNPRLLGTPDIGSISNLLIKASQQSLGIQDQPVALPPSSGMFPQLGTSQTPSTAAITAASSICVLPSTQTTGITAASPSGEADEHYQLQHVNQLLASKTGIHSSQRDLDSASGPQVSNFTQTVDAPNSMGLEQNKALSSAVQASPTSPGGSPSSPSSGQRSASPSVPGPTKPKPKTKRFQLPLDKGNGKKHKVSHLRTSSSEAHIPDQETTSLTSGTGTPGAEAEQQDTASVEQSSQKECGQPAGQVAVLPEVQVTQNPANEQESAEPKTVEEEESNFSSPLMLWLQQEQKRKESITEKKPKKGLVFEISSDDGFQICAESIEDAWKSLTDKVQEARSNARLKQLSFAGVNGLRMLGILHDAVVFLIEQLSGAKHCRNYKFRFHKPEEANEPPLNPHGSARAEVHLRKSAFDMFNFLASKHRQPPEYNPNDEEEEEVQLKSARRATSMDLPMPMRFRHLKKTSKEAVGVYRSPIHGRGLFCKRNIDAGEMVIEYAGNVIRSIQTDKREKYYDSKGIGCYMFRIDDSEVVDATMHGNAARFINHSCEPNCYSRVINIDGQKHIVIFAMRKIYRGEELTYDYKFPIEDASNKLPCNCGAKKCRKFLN

For “Histone lysine acetyltransferase CREBBP (Mus musculus), P45481 F612A”, the “effect of a mutation on the interaction” value in the test with kmt2a_human KMT2A [1] is given as “decreasing interaction”.
Turning to “Histone lysine acetyltransferase CREBBP (Mus musculus), P45481 Y631A”, in the test with kmt2a_human KMT2A [2], the “effect of a mutation on the interaction” value was “decreasing interaction”.
Turning to “Histone lysine acetyltransferase CREBBP (Mus musculus), P45481 L628A”, the “effect of a mutation on the interaction” value is listed as “disrupting interaction” in the test with kmt2a_human KMT2A [3] and “decreasing interaction” with kmt2a_human KMT2A [4].
Consider “Histone lysine acetyltransferase CREBBP (Mus musculus), P45481 R668A”, for which the “effect of a mutation on the interaction” value in the test with kmt2a_human KMT2A [5] is “decreasing interaction”.
Regarding “Histone lysine acetyltransferase CREBBP (Mus musculus), P45481 L664A”, the “effect of a mutation on the interaction” value in the test with kmt2a_human KMT2A [6] is “decreasing interaction”.
For “Histone lysine acetyltransferase CREBBP (Mus musculus), P45481 R624A”, the “effect of a mutation on the interaction” value with kmt2a_human KMT2A [7] is given as “decreasing interaction”.
